{"source": "patent US20100160262", "target": "enzymatically [3H] acetylated histone H3 peptide (amino acids 1-24), P68431"}
{"protein": "human SIRT1 with a C-terminal FLAG tag (protein) MADEAALALQPGGSPSAAGADREAASSPAGEPLRKRPRRDGPGLERSPGEPGGAAPEREVPAAARGCPGAAAAALWREAEAEAAAAGGEQEAQATAAAGEGDNGPGLQGPSREPPLADNLYDEDDDDEGEEEEEAAAAAIGYRDNLLFGDEIITNGFHSCESDEEDRASHASSSDWTPRPRIGPYTFVQQHLMIGTDPRTILKDLLPETIPPPELDDMTLWQIVINILSEPPKRKKRKDINTIEDAVKLLQECKKIIVLTGAGVSVSCGIPDFRSRDGIYARLAVDFPDLPDPQAMFDIEYFRKDPRPFFKFAKEIYPGQFQPSLCHKFIALSDKEGKLLRNYTQNIDTLEQVAGIQRIIQCHGSFATASCLICKYKVDCEAVRGDIFNQVVPRCPRCPADEPLAIMKPEIVFFGENLPEQFHRAMKYDKDEVDLLIVIGSSLKVRPVALIPSSIPHEVPQILINREPLPHLHFDVELLGDCDVIINELCHRLGGEYAKLCCNPVKLSEITEKPPRTQKELAYLSELPPTPLHVSEDSSSPERTSPPDSSVIVTLLDQAAKSNDDLDVSESKGCMEEKPQEVQTSRNVESIAEQMENPDLKNVGSSTGEKNERTSVAGTVRKCWPNRVAKEQISRRLDGNQYLFLPPNRYIFHGAEVYSDSEDDVLSSSSCGSNSDSGTCQSPSLEEPMEDESEIEEFYNGLEDEPDVPERAGGAGFGTDGDDQEAINEAISVKQEVTDMNYPSNKS", "values": [{"measurement": "standard histone deacetylase assay (radioactive, H3 peptide substrate)", "result": "These enzymes also deacetylate histones as determined in a standard histone deacetylase assay"}]}
